Assay [1] deals with T1, IL-18 receptor (IL-18Rαβ) on cells (UniProt Q13478 19-541; O95256 20-599, limits assumed).
T1 sequence (looked up) 1: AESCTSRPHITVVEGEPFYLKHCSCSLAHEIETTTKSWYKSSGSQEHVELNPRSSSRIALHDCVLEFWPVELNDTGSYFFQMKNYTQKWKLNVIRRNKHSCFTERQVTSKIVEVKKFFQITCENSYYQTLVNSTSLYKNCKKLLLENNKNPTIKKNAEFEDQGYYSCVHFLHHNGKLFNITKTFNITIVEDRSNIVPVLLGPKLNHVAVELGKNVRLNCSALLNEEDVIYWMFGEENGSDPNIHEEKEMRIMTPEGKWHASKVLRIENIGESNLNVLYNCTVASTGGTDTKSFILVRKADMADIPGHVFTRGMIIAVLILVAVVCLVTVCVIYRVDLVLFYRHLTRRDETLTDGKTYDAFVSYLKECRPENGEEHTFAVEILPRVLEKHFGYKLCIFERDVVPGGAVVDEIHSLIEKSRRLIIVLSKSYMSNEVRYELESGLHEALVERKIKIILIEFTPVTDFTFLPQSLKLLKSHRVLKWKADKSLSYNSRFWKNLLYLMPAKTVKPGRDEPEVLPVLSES
T1 sequence (looked up) 2: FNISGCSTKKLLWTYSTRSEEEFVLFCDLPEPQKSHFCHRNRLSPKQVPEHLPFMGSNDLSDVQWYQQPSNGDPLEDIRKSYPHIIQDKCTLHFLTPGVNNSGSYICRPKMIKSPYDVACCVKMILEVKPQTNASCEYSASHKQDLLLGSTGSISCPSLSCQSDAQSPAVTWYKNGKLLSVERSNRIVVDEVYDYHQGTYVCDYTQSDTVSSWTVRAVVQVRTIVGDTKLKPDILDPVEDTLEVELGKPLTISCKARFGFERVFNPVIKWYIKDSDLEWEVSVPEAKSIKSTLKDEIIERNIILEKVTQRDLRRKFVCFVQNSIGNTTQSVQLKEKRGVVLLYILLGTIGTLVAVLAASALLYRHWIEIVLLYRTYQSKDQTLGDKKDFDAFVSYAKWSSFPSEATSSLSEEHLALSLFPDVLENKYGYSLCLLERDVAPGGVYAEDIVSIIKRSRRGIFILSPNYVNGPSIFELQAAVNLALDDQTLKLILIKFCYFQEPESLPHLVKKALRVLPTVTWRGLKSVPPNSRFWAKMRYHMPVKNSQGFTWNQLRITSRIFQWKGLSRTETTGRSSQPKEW
The assay can be described thus: cell-based or functional assay.

For assay [2], the target named is T1, IL-18 receptor (IL-18Rαβ) on cells. The assay is described as follows: cell-based or functional assay. This is another data set of the same source.

B1: C148 (F2A, V11I, C38A, K53A, C76A, C127A) (ligand)
chain: YAGKLESKLSIIRNLNDQVLFIDQGNRPLFEDMTDSDARDNAPRTIFIISMYADSQPRGMAVTISVKCEKISTLSAENKIISFKEMNPPDNIKDTKSDIIFFQRSVPGHDNKMQFESSSYEGYFLAAEKERDLFKLILKKEDELGDRSIMFTVQNED
Regarding B1, in assay [1], the “EC50 (pM), HEK-Blue IL-18R reporter assay” value (“EC50 (pM)” below) is 7.28 pM. The “EC50 (nM), IFNγ induction, NK-92 cells” value in assay [2] came to 0.187 nM.

B2: C163 (V11I, C38A, C76A, Q103K, C127A) (ligand)
chain: YFGKLESKLSIIRNLNDQVLFIDQGNRPLFEDMTDSDARDNAPRTIFIISMYKDSQPRGMAVTISVKCEKISTLSAENKIISFKEMNPPDNIKDTKSDIIFFKRSVPGHDNKMQFESSSYEGYFLAAEKERDLFKLILKKEDELGDRSIMFTVQNED
B2: in assay [1], the “EC50 (pM)” value came to 1.5 pM. The “EC50 (nM), IFNγ induction, NK-92 cells” value in assay [2] was determined as 0.414 nM.

B3: C166 (V11I, C38A, S55T, C76A, C127A) (ligand)
chain: YFGKLESKLSIIRNLNDQVLFIDQGNRPLFEDMTDSDARDNAPRTIFIISMYKDTQPRGMAVTISVKCEKISTLSAENKIISFKEMNPPDNIKDTKSDIIFFQRSVPGHDNKMQFESSSYEGYFLAAEKERDLFKLILKKEDELGDRSIMFTVQNED
Regarding B3, the “EC50 (pM)” value in assay [1] was found to be 4.73 pM. The “EC50 (nM), IFNγ induction, NK-92 cells” value in assay [2] is 0.103 nM.

B4: C154 (V11I, E31A, D37A, C38A, K53A, C76A, C127A) (ligand)
chain: YFGKLESKLSIIRNLNDQVLFIDQGNRPLFADMTDSAARDNAPRTIFIISMYADSQPRGMAVTISVKCEKISTLSAENKIISFKEMNPPDNIKDTKSDIIFFQRSVPGHDNKMQFESSSYEGYFLAAEKERDLFKLILKKEDELGDRSIMFTVQNED
In the case of B4, in assay [1], the “EC50 (pM)” value worked out at 11.9 pM. The “EC50 (nM), IFNγ induction, NK-92 cells” value in assay [2] turned out to be 0.067 nM.

B5: C158 (V11I, C38A, K53A, C76A, G108A, C127A) (ligand)
chain: YFGKLESKLSIIRNLNDQVLFIDQGNRPLFEDMTDSDARDNAPRTIFIISMYADSQPRGMAVTISVKCEKISTLSAENKIISFKEMNPPDNIKDTKSDIIFFQRSVPAHDNKMQFESSSYEGYFLAAEKERDLFKLILKKEDELGDRSIMFTVQNED
B5: the “EC50 (pM)” value in assay [1] turned out to be 15.6 pM. Further, in assay [2], the “EC50 (nM), IFNγ induction, NK-92 cells” value worked out at 0.123 nM.

B6: C151 (V11I, D35A, C38A, K53A, C76A, C127A) (ligand)
chain: YFGKLESKLSIIRNLNDQVLFIDQGNRPLFEDMTASDARDNAPRTIFIISMYADSQPRGMAVTISVKCEKISTLSAENKIISFKEMNPPDNIKDTKSDIIFFQRSVPGHDNKMQFESSSYEGYFLAAEKERDLFKLILKKEDELGDRSIMFTVQNED
Take B6: the “EC50 (pM)” value in assay [1] is 13.1 pM. Besides, the “EC50 (nM), IFNγ induction, NK-92 cells” value in assay [2] came out at 0.033 nM.

B7: C162 (K8E, V11I, C38A, C76A, Q103R, C127A) (ligand)
chain: YFGKLESELSIIRNLNDQVLFIDQGNRPLFEDMTDSDARDNAPRTIFIISMYKDSQPRGMAVTISVKCEKISTLSAENKIISFKEMNPPDNIKDTKSDIIFFRRSVPGHDNKMQFESSSYEGYFLAAEKERDLFKLILKKEDELGDRSIMFTVQNED
Turning to B7, the “EC50 (pM)” value in assay [1] is 2.3 pM. Moreover, in assay [2], the “EC50 (nM), IFNγ induction, NK-92 cells” value is 0.093 nM.

B8: C149 (V11I, E31A, C38A, K53A, C76A, C127A) (ligand)
chain: YFGKLESKLSIIRNLNDQVLFIDQGNRPLFADMTDSDARDNAPRTIFIISMYADSQPRGMAVTISVKCEKISTLSAENKIISFKEMNPPDNIKDTKSDIIFFQRSVPGHDNKMQFESSSYEGYFLAAEKERDLFKLILKKEDELGDRSIMFTVQNED
As to B8, the “EC50 (pM)” value in assay [1] is 6.6 pM. Moreover, the “EC50 (nM), IFNγ induction, NK-92 cells” value in assay [2] came to 0.015 nM.

B9: C161 (K8R, V11I, C38A, C76A, Q103E, C127A) (ligand)
chain: YFGKLESRLSIIRNLNDQVLFIDQGNRPLFEDMTDSDARDNAPRTIFIISMYKDSQPRGMAVTISVKCEKISTLSAENKIISFKEMNPPDNIKDTKSDIIFFERSVPGHDNKMQFESSSYEGYFLAAEKERDLFKLILKKEDELGDRSIMFTVQNED
In the case of B9, the “EC50 (pM)” value in assay [1] came out at 2.01 pM. Further, in assay [2], the “EC50 (nM), IFNγ induction, NK-92 cells” value came to 0.061 nM.

B10: C160 (V11I, C38A, K53A, C76A, D110A, C127A) (ligand)
chain: YFGKLESKLSIIRNLNDQVLFIDQGNRPLFEDMTDSDARDNAPRTIFIISMYADSQPRGMAVTISVKCEKISTLSAENKIISFKEMNPPDNIKDTKSDIIFFQRSVPGHANKMQFESSSYEGYFLAAEKERDLFKLILKKEDELGDRSIMFTVQNED
B10: the “EC50 (pM)” value in assay [1] was found to be 2.02 pM. In assay [2], the “EC50 (nM), IFNγ induction, NK-92 cells” value turned out to be 0.057 nM.

B11: C159 (V11I, C38A, K53A, C76A, H109A, C127A) (ligand)
chain: YFGKLESKLSIIRNLNDQVLFIDQGNRPLFEDMTDSDARDNAPRTIFIISMYADSQPRGMAVTISVKCEKISTLSAENKIISFKEMNPPDNIKDTKSDIIFFQRSVPGADNKMQFESSSYEGYFLAAEKERDLFKLILKKEDELGDRSIMFTVQNED
For B11, in assay [1], the “EC50 (pM)” value came out at 19.5 pM. For the same molecule, the “EC50 (nM), IFNγ induction, NK-92 cells” value in assay [2] is 0.028 nM.

B12: C152 (V11I, S36A, C38A, K53A, C76A, C127A) (ligand)
chain: YFGKLESKLSIIRNLNDQVLFIDQGNRPLFEDMTDADARDNAPRTIFIISMYADSQPRGMAVTISVKCEKISTLSAENKIISFKEMNPPDNIKDTKSDIIFFQRSVPGHDNKMQFESSSYEGYFLAAEKERDLFKLILKKEDELGDRSIMFTVQNED
For B12, in assay [1], the “EC50 (pM)” value came to 0.25 pM. In assay [2], the “EC50 (nM), IFNγ induction, NK-92 cells” value came to 0.175 nM.

B13: C155 (V11I, C38A, D40A, K53A, C76A, C127A) (ligand)
chain: YFGKLESKLSIIRNLNDQVLFIDQGNRPLFEDMTDSDARANAPRTIFIISMYADSQPRGMAVTISVKCEKISTLSAENKIISFKEMNPPDNIKDTKSDIIFFQRSVPGHDNKMQFESSSYEGYFLAAEKERDLFKLILKKEDELGDRSIMFTVQNED
For the molecule B13, the “EC50 (pM)” value in assay [1] is 0.52 pM. In addition, in assay [2], the “EC50 (nM), IFNγ induction, NK-92 cells” value came out at 0.558 nM.

B14: C157 (V11I, C38A, K53A, C76A, C127A, D132A) (ligand)
chain: YFGKLESKLSIIRNLNDQVLFIDQGNRPLFEDMTDSDARDNAPRTIFIISMYADSQPRGMAVTISVKCEKISTLSAENKIISFKEMNPPDNIKDTKSDIIFFQRSVPGHDNKMQFESSSYEGYFLAAEKERALFKLILKKEDELGDRSIMFTVQNED
Regarding B14, the “EC50 (pM)” value in assay [1] amounted to 1.95 pM. Moreover, the “EC50 (nM), IFNγ induction, NK-92 cells” value in assay [2] is 0.073 nM.

B15: C153 (V11I, D37A, C38A, K53A, C76A, C127A) (ligand)
chain: YFGKLESKLSIIRNLNDQVLFIDQGNRPLFEDMTDSAARDNAPRTIFIISMYADSQPRGMAVTISVKCEKISTLSAENKIISFKEMNPPDNIKDTKSDIIFFQRSVPGHDNKMQFESSSYEGYFLAAEKERDLFKLILKKEDELGDRSIMFTVQNED
On to B15, for which the “EC50 (pM)” value in assay [1] was 14.1 pM. For the same molecule, the “EC50 (nM), IFNγ induction, NK-92 cells” value in assay [2] worked out at 0.062 nM.

B16: C150 (V11I, T34A, C38A, K53A, C76A, C127A) (ligand)
chain: YFGKLESKLSIIRNLNDQVLFIDQGNRPLFEDMADSDARDNAPRTIFIISMYADSQPRGMAVTISVKCEKISTLSAENKIISFKEMNPPDNIKDTKSDIIFFQRSVPGHDNKMQFESSSYEGYFLAAEKERDLFKLILKKEDELGDRSIMFTVQNED
In the case of B16, the “EC50 (pM)” value in assay [1] is 0.7 pM. Further, the “EC50 (nM), IFNγ induction, NK-92 cells” value in assay [2] is 0.061 nM.

B17: C164 (V11I, C38A, S55H, C76A, C127A) (ligand)
chain: YFGKLESKLSIIRNLNDQVLFIDQGNRPLFEDMTDSDARDNAPRTIFIISMYKDHQPRGMAVTISVKCEKISTLSAENKIISFKEMNPPDNIKDTKSDIIFFQRSVPGHDNKMQFESSSYEGYFLAAEKERDLFKLILKKEDELGDRSIMFTVQNED
For B17, the “EC50 (pM)” value in assay [1] was found to be 3.14 pM. For the same molecule, the “EC50 (nM), IFNγ induction, NK-92 cells” value in assay [2] stood at 0.176 nM.

B18: C156 (V11I, C38A, N41A, K53A, C76A, C127A) (ligand)
chain: YFGKLESKLSIIRNLNDQVLFIDQGNRPLFEDMTDSDARDAAPRTIFIISMYADSQPRGMAVTISVKCEKISTLSAENKIISFKEMNPPDNIKDTKSDIIFFQRSVPGHDNKMQFESSSYEGYFLAAEKERDLFKLILKKEDELGDRSIMFTVQNED
Consider B18, for which the “EC50 (pM)” value in assay [1] was 11.7 pM. For the same molecule, the “EC50 (nM), IFNγ induction, NK-92 cells” value in assay [2] amounted to 0.056 nM.

B19: C165 (V11I, C38A, S55R, C76A, C127A) (ligand)
chain: YFGKLESKLSIIRNLNDQVLFIDQGNRPLFEDMTDSDARDNAPRTIFIISMYKDRQPRGMAVTISVKCEKISTLSAENKIISFKEMNPPDNIKDTKSDIIFFQRSVPGHDNKMQFESSSYEGYFLAAEKERDLFKLILKKEDELGDRSIMFTVQNED
As for B19, the “EC50 (pM)” value in assay [1] was 1.91 pM. In assay [2], the “EC50 (nM), IFNγ induction, NK-92 cells” value was determined as 0.098 nM.

These data come from patent US20240116997A1 (BRIGHT PEAK THERAPEUTICS, published 2024).
